Laboratory results published in paper PMC10344899, “ZmmiR169q/ZmNF-YA8 is a module that homeostatically regulates primary root growth and salt tolerance in maize”.

Target: T1, ZmNF-YA8 (Zea mays, UniProt B6SPD7 2-301)
T1 sequence: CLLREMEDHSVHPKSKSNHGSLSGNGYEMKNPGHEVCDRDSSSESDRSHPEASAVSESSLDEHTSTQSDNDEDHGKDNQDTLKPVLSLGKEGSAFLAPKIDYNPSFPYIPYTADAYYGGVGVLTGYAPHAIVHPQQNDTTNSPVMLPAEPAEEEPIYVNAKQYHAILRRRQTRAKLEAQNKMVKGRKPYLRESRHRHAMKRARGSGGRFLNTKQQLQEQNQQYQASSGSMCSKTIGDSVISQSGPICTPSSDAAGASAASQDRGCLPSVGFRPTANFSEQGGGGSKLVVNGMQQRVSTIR
Test: EMSA; shifted band reduced by 20x unlabelled probe and eliminated at 40x; 20 min incubation; nondenaturing 4% polyacrylamide gel, 0.5x TBE; LightShift Chemiluminescent EMSA kit; binding buffer, salt, pH and temperature not stated
Conditions: protein: recombinant; tags: His (pET28a); blunt

B1: ZmERF1B promoter P1 CCAAT-box EMSA probe (dsDNA)
DNA 1: GGCGCGCATTCGCCTCGCCTCCAATTCCCATCCATCACTAACTTG
DNA 2: CAAGTTAGTGATGGATGGGAATTGGAGGCGAGGCGAATGCGCGCC
B1: binds.
